Results on 19 molecules are retold here after US20080219974A1 (published 2008).

Positions count from the first letter of the chain named. Numbers in names are those of the source. Like-named read-outs stand apart in the source and are kept apart here.

The target in experiment [1] is T1, Human HM1.24 on RPMI 8226 multiple myeloma cells (UniProt Q10589 1-161).
T1 chain: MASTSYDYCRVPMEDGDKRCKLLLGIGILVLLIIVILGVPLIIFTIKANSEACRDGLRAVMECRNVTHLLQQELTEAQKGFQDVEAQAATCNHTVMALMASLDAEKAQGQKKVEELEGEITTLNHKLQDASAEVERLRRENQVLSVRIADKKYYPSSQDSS
The experiment can be described thus: flow cytometry. Background: In flow cytometry, cells or beads pass a laser one at a time.

The target of experiment [2] is T2, His-tagged HM1.24 antigen, residues N49-A163 of the extracellular domain (UniProt Q10589 49-163).
T2 chain: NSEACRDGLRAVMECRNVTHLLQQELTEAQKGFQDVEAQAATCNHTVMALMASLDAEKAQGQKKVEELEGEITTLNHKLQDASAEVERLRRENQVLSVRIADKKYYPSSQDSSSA
The experiment can be described thus: Biacore. On the technique in general: In SPR one partner is held on a chip, and binding of the other changes the refractive index at the surface.

Experiment [3] deals with T2, His-tagged HM1.24 antigen, residues …. Put plainly: Biacore.
The target is the same in experiment [4]. Put plainly: Biacore.
Experiment [5] shares this target. The experiment can be described thus: Biacore.

B1: H0L0_IgG1_S239D/I332E (antibody, V domains shown)
VH: QVQLQQSGAELARPGASVKLSCKASGYTFTPYWMQWVKQRPGQGLEWIGSIFPGDGDTRYSQKFKGKATLTADKSSSTAYMQLSILAFEDSAVYYCARGLRRGGYYFDYWGQGTTLTVSS
VL: DIVMTQSHKFMSTSVGDRVSITCKASQDVNTAVAWYQQKPGQSPKLLIYSASNRYTGVPDRITGSGSGTDFTFTISSVQAEDLALYYCQQHYSTPFTFGSGTKLEIK
One may read the EC50 as the concentration that produces a half-maximal response. Read a low EC50 as an effect from little substance. A word on the Kd: it is the equilibrium constant for the complex coming apart. A higher Kd goes with lower affinity. In experiment [1], B1 yielded an EC50 of 2.22 nM. The Kd in experiment [2] turned out to be 0.0637 nM; in experiment [3], 0.0522 nM.

B2: HM1.24_H0L0_IgG1_WT (antibody, V domains shown)
VH: B1 VH
VL: DIVMTQSHKFMSTSVGDRVSITCKASQDVNTAVAWYQQKPGQSPKLLIYSASNRYTGVPDRITGSGSGTDFTFTISSVQAEDLALYYCQQHYSTPFTFGSGTKLEIKR
For B2, the EC50 in experiment [1] turned out to be 2.46 nM. Moreover, the Kd came to 0.0537 nM in experiment [2] and 0.0511 nM in experiment [3].

B3: HM1.24_H1.2 heavy chain variant with HM1.24_L4 light chain (antibody, V domains shown)
VH: QVQLVQSGAEVKKPGASVKVSCKASGYTFTPYWMQWVRQAPGQGLEWMGSIFPGSGDTRYSQSFQGQVTISADKSISTAYMELSRLRSDDTAVYYCARGLRRGGYYFDYWGQGTLVTVSS
VL: DIVMTQSPLSLPVTLGQPASISCKASQDVNTAVAWYLQKPGKSPKLLIYSASNRYTGVPDRITGSGSGTDFTLKISRVEAEDVGVYYCQQHYSTPFTFGSGTKLEIKR
The koff is the rate constant with which the complex falls apart. Low values mean a long-lived complex, high ones a short-lived complex. Consider B3, for which the koff in experiment [4] came to 0.00203 s⁻¹; in experiment [5], 0.0023 s⁻¹. Moreover, the Kd in experiment [2] stood at 0.0711 nM; in experiment [3], 0.062 nM.

B4: HM1.24_H1.1 heavy chain variant with HM1.24_L4 light chain (antibody, V domains shown)
VH: B3 VH with S55E
VL: B3 VL
Consider B4, for which the koff in experiment [4] turned out to be 0.00251 s⁻¹; in experiment [5], 0.00201 s⁻¹.

B5: HM1.24_H2.1 heavy chain variant with HM1.24_L4 light chain (antibody, V domains shown)
VH: EVQLVESGGGLVKPGGSLRLSCAASGYTFTPYWMQWVRQAPGKGLEWMGSIFPGEGDTRYSQSFQGQVTISADKSISTAYMELSSLRSEDTAVYYCARGLRRGGYYFDYWGQGTLVTVSS
VL: B3 VL
B5: the koff in experiment [4] turned out to be 0.00266 s⁻¹; in experiment [5], 0.00218 s⁻¹.

B6: HM1.24_H1L4 (antibody, V domains shown)
VH: B3 VH with S55D
VL: B3 VL
B6 displayed an EC50 in experiment [1] of 1.89 nM. Further, the koff in experiment [4] was determined as 0.00352 s⁻¹; in experiment [5], 0.00243 s⁻¹. Further, the Kd in experiment [2] was found to be 0.0572 nM; in experiment [3] it was 0.0381 nM.

B7: HM1.24_H1.4_L2_Hybrid_S239D/I332E (antibody, V domains shown)
VH: B3 VH with S55D, G56A
VL: DIVMTQSPSSLSASVGDRVTITCQASQDVNTAVAWYQQKPDQSPKLLIYSASNRYTGVPDRITGSGSGTDFTLTISSLQAEDVAVYYCQQHYSTPFTFGSGTKLEIKR
With B7, the results for the koff in experiment [4] and in experiment [5] were 0.00352 s⁻¹ and 0.00274 s⁻¹, respectively.

B8: HM1.24_H2L4 (antibody, V domains shown)
VH: B5 VH with E55D
VL: B3 VL
For B8, the concentration giving a half-maximal response (EC50) in experiment [1] stood at 3.55 nM. Besides, the koff in experiment [4] came to 0.00418 s⁻¹; in experiment [5] it was 0.00299 s⁻¹.

B9: HM1.24_H1.1_L2_Hybrid_S239D/I332E (antibody, V domains shown)
VH: B3 VH with S55E
VL: B7 VL
For B9, the koff in experiment [4] was found to be 0.0032 s⁻¹; in experiment [5], 0.00206 s⁻¹.

B10: HM1.24_H1L2 (antibody, V domains shown)
VH: B3 VH with S55D
VL: B7 VL
Consider B10, for which, in experiment [1], it took 2.52 nM to reach a half-maximal effect (EC50). The results for the koff in experiment [4] and in experiment [5] were 0.00318 s⁻¹ and 0.00241 s⁻¹, respectively. Also, the Kd stood at 0.0574 nM in experiment [2] and 0.0269 nM in experiment [3].

B11: HM1.24_H1.2_L2_Hybrid_S239D/I332E (antibody, V domains shown)
VH: B3 VH
VL: B7 VL
B11: the koff worked out at 0.00371 s⁻¹ in experiment [4] and 0.0039 s⁻¹ in experiment [5].

B12: HM1.24_H1.3_L2_Hybrid_S239D/I332E (antibody, V domains shown)
VH: B3 VH with S55D, G56S
VL: B7 VL
In the case of B12, the koff amounted to 0.003 s⁻¹ in experiment [4] and 0.00279 s⁻¹ in experiment [5].

B13: HM1.24_H1.3 heavy chain variant with HM1.24_L4 light chain (antibody, V domains shown)
VH: B3 VH with S55D, G56S
VL: B3 VL
Consider B13, for which the koff in experiment [4] came to 0.00261 s⁻¹; in experiment [5], 0.00229 s⁻¹.

B14: HM1.24_H2.4 heavy chain variant with HM1.24_L4 light chain (antibody, V domains shown)
VH: B5 VH with E55D, G56A
VL: B3 VL
Consider B14, for which the koff in experiment [4] was determined as 0.004 s⁻¹; in experiment [5], 0.0029 s⁻¹.

B15: HM1.24_H2.3 heavy chain variant with HM1.24_L4 light chain (antibody, V domains shown)
VH: B5 VH with E55D, G56S
VL: B3 VL
Consider B15, for which the koff in experiment [4] stood at 0.00374 s⁻¹; in experiment [5] it was 0.00327 s⁻¹.

B16: HM1.24_H1.4 heavy chain variant with HM1.24_L4 light chain (antibody, V domains shown)
VH: B3 VH with S55D, G56A
VL: B3 VL
In the case of B16, the koff in experiment [4] and in experiment [5] was 0.00298 s⁻¹ each time.

B17: H1L3_Hybrid_S239D/I332E (antibody, V domains shown)
VH: B3 VH with S55D
VL: B7 VL with S9P, S10T, A13L, V15P, D17E, I21L, T22S, Q24R, A80P, V83F
Regarding B17, the response in experiment [1] was half-maximal at 3.26 nM (EC50).

B18: HM1.24_H2L2 (antibody, V domains shown)
VH: B5 VH with E55D
VL: B7 VL
For the molecule B18, the response in experiment [1] was half-maximal at 5.83 nM (EC50). Compared with the last molecule, the EC50 is about 1.8-fold higher.

B19: H2L3_Hybrid_S239D/I332E (antibody, V domains shown)
VH: B5 VH with E55D
VL: B7 VL with S9P, S10T, A13L, V15P, D17E, I21L, T22S, Q24R, A80P, V83F
On to B19, for which the concentration for a half-maximal effect (EC50) in experiment [1] is 13.1 nM. This EC50 is about 2.2-fold higher than that of the molecule before.
